Data set [1] concerns Cys. The data set is described as follows: kinetics. The settings on record: free enzyme; cited from earlier work.
For data set [2], the system named is His. Kind of data set: kinetics. As to conditions: free enzyme; cited from earlier work.
Data set [3] addresses T1, Cys25 (UniProt position 147, GQCGSCWAFSA). The data set is described as follows: kinetics. As to conditions: 25 °C; 0.1 (constant); free enzyme (kcat/Km profile).
Data set [4] has as its target T2, His162 (UniProt position 284, SEQLDHGVLLV). Kind of data set: kinetics. The settings on record: free enzyme (kcat/Km profile).
Data set [5] concerns the target T1, Cys25. The data set is described as follows: chemical modification. As to conditions: 25 °C (general statement for all assays); ligand-free enzyme.
The target in data set [6] is T2, His162. Kind of data set: NMR. The settings on record: Cys25 covalently modified by K11777; cited from earlier work.
Data set [7] deals with Cys25 (UniProt position 158, GSCGSCWAFSA). The data set is described as follows: chemical modification. As to conditions: free enzyme; cited from earlier work.
Data set [8] concerns the target His159 (UniProt position 292, GNKVDHAVAAV). Kind of data set: chemical modification. The settings on record: free enzyme; cited from earlier work.
The test system of data set [9] is Cc1cc(=O)oc2cc(NC(=O)[C@H](CCCNC(=N)N)NC(=O)[C@H](CCCNC(=N)N)NC(=O)OCc3ccccc3)ccc12. The data set is described as follows: purified protein. The settings on record: pH 7.5, 25 °C, 2% DMSO, 5 mM DTT, 1 mM CHAPS, 1 mM EDTA.
In data set [10] the test system is Cc1cc(=O)oc2cc(NC(=O)[C@H](CCCNC(=N)N)NC(=O)[C@H](Cc3ccccc3)NC(=O)OCc3ccccc3)ccc12. Kind of data set: purified protein. The settings on record: pH 7.5, 25 °C, 2% DMSO, 5 mM DTT, 1 mM CHAPS, 1 mM EDTA.
For data set [11], the system named is Cc1cc(=O)oc2cc(NC(=O)[C@H](C)NC(=O)[C@H](CCCNC(=N)N)NC(=O)OCc3ccccc3)ccc12. Kind of data set: purified protein. The settings on record: pH 7.5, 25 °C, 2% DMSO, 5 mM DTT, 1 mM CHAPS, 1 mM EDTA.

Results on 5 substances are retold here after PMC10569748.

“And” between values parts separate entries of the source, which are not always exact repeats. Equal values may be shown once.

In general, pKa refers to the negative logarithm of the acid dissociation constant. With “Cathepsin C (dipeptidyl peptidase I) (Homo sapiens)”, the figures for the pKa in [1] and in [2] were 4.3 and 6.5, respectively.

“Cruzain (cruzipain catalytic domain) (Trypanosoma cruzi)”: the pKa in data set [3] was 9.6 ± 0.1; in data set [4] (25 °C, 0.1 (constant), sticky substrate), 6.2 ± 0.4 and 6.0 ± 0.1; in [4] (25 °C), 6.2 ± 0.1; in [4] (40 °C) it was 5.9 ± 0.1; in data set [5], 9.76 ± 0.04.

For the substance “Cruzain covalently complexed with K11777 (Trypanosoma cruzi)”, in data set [6], the pKa was 5.2–5.3.

On to Papain (Carica papaya), for which the pKa is 4.0 in data set [7] and 8.4 in data set [8].

A word on the Km: it is the concentration of substrate that gives half-maximal velocity. The term kcat denotes the number of substrate molecules converted per active site and unit of time at saturation. By kcat/Km is commonly meant the turnover number divided by the Michaelis constant. With cruzain (Trypanosoma cruzi), the Km in data set [9] worked out at 3.7 ± 0.4 µM; in data set [10] it was 0.62 ± 0.02 µM; in data set [11], 38 ± 2 µM. Besides, the kcat in data set [9] came out at 7.2 ± 0.1 s⁻¹; in data set [10], 17 ± 2 s⁻¹; in data set [11], 0.89 ± 0.06 s⁻¹. For the same substance, the kcat/Km stood at 1.9e+06 ± 200000 M⁻¹ s⁻¹ in [9], 2.7e+07 ± 4e+06 M⁻¹ s⁻¹ in [10] and 23000 ± 3000 M⁻¹ s⁻¹ in data set [11].
